± gives the uncertainty stated by the source.

B1: Intersectin-2, residues 1129 to 1183; numbered along this chain, Q9NZM3 (parent)
chain: VCQVIAMYDYAANNEDELSFSKGQLINVMNKDDPDWWQGEINGVTGLFPSNYVKM

The variants in this data set derive from B1. The data set can be described thus: abundance fitness (aPCA) (normalised: wild type 0, dead -1); higher = more abundant; growth selection in yeast, the domain comes from the species named. To be noted: Homo sapiens.
Regarding VCQVIAMYDYAAPNEDELSFSKGQLINVMNKDDPDWWQGEINGVTGLFPSNYVKM [N13P], the abundance fitness is -0.133 ± 0.055. The value for VCQVIAMYDYAAHNEDELSFSKGQLINVMNKDDPDWWQGEINGVTGLFPSNYVKM [N13H] was 0.106 ± 0.057; that for VCQVIAMYDYAAKNEDELSFSKGQLINVMNKDDPDWWQGEINGVTGLFPSNYVKM [N13K] was 0.042 ± 0.037. For VCQVIAMYDYAALNEDELSFSKGQLINVMNKDDPDWWQGEINGVTGLFPSNYVKM [N13L], the abundance fitness worked out at 0.01 ± 0.036. As for VCQVIAMYDYAASNEDELSFSKGQLINVMNKDDPDWWQGEINGVTGLFPSNYVKM [N13S], the abundance fitness was determined as 0.014 ± 0.029. The value for VCQVIAMYDYAAVNEDELSFSKGQLINVMNKDDPDWWQGEINGVTGLFPSNYVKM [N13V] was -0.003 ± 0.033; that for VCQVIAMYDYAATNEDELSFSKGQLINVMNKDDPDWWQGEINGVTGLFPSNYVKM [N13T] was 0.011 ± 0.037; that for VCQVIAMYDYAAANEDELSFSKGQLINVMNKDDPDWWQGEINGVTGLFPSNYVKM [N13A] was -0.024 ± 0.041.

With VCQVIAMYDYAAFNEDELSFSKGQLINVMNKDDPDWWQGEINGVTGLFPSNYVKM [N13F], the abundance fitness was -0.092 ± 0.042. As to VCQVIAMYDYAANNEDECSFSKGQLINVMNKDDPDWWQGEINGVTGLFPSNYVKM [L18C], the abundance fitness is -0.378 ± 0.058. Under VCQVIAMYDYAANNEDEASFSKGQLINVMNKDDPDWWQGEINGVTGLFPSNYVKM [L18A] stands -0.715 ± 0.06; under VCQVIAMYDYAANNEVELSFSKGQLINVMNKDDPDWWQGEINGVTGLFPSNYVKM [D16V], -0.082 ± 0.044.

As for VCQVIAMYDYAANNEIELSFSKGQLINVMNKDDPDWWQGEINGVTGLFPSNYVKM [D16I], the abundance fitness came to 0.109 ± 0.061. With VCQVIAMYDYAANNEGELSFSKGQLINVMNKDDPDWWQGEINGVTGLFPSNYVKM [D16G], the abundance fitness is -0.02 ± 0.033.

Regarding VCQVIAMYDYAANNEQELSFSKGQLINVMNKDDPDWWQGEINGVTGLFPSNYVKM [D16Q], the abundance fitness was -0.044 ± 0.039.

As for VCQVIAMYDYAANNETELSFSKGQLINVMNKDDPDWWQGEINGVTGLFPSNYVKM [D16T], the abundance fitness was -0.126 ± 0.055. Under VCQVIAMYDYAANNENELSFSKGQLINVMNKDDPDWWQGEINGVTGLFPSNYVKM [D16N] stands -0.068 ± 0.065; under VCQVIAMYDYAANNECELSFSKGQLINVMNKDDPDWWQGEINGVTGLFPSNYVKM [D16C], -0.014 ± 0.057; under VCQVIAMYDYAANNEHELSFSKGQLINVMNKDDPDWWQGEINGVTGLFPSNYVKM [D16H], -0.101 ± 0.057. VCQVIAMYDYAANNEWELSFSKGQLINVMNKDDPDWWQGEINGVTGLFPSNYVKM [D16W]: the abundance fitness was -0.117 ± 0.038.

On to VCQVIAMYDYAANNEEELSFSKGQLINVMNKDDPDWWQGEINGVTGLFPSNYVKM [D16E], for which the abundance fitness is -0.011 ± 0.057. Under VCQVIAMYDYAANNEAELSFSKGQLINVMNKDDPDWWQGEINGVTGLFPSNYVKM [D16A] stands 0.004 ± 0.041. Under VCQVIAMYDYAANNEFELSFSKGQLINVMNKDDPDWWQGEINGVTGLFPSNYVKM [D16F] stands -0.04 ± 0.033. For the variant VCQVIAMYDYAANNEKELSFSKGQLINVMNKDDPDWWQGEINGVTGLFPSNYVKM [D16K], the abundance fitness was 0.016 ± 0.035. Under VCQVIAMYDYAANNEPELSFSKGQLINVMNKDDPDWWQGEINGVTGLFPSNYVKM [D16P] stands -0.075 ± 0.058. Consider VCQVIAMYDYAANNESELSFSKGQLINVMNKDDPDWWQGEINGVTGLFPSNYVKM [D16S], for which the abundance fitness was -0.004 ± 0.033. Take VCQVIAMYDYAANNELELSFSKGQLINVMNKDDPDWWQGEINGVTGLFPSNYVKM [D16L]: the abundance fitness is -0.034 ± 0.044. Under VCQVIAMYDYAANNERELSFSKGQLINVMNKDDPDWWQGEINGVTGLFPSNYVKM [D16R] stands 0.001 ± 0.038.

For VCQVIAMYDYAANNEMELSFSKGQLINVMNKDDPDWWQGEINGVTGLFPSNYVKM [D16M], the abundance fitness was -0.066 ± 0.049. As to VCQVIAMYDYAANNEYELSFSKGQLINVMNKDDPDWWQGEINGVTGLFPSNYVKM [D16Y], the abundance fitness was determined as 0.047 ± 0.066. VCQVIAMYDYAANNEDTLSFSKGQLINVMNKDDPDWWQGEINGVTGLFPSNYVKM [E17T]: the abundance fitness is -0.158 ± 0.049.

In the case of VCQVIAMYDYAANNEDLLSFSKGQLINVMNKDDPDWWQGEINGVTGLFPSNYVKM [E17L], the abundance fitness is -0.124 ± 0.03.

With VCQVIAMYDYAANNEDFLSFSKGQLINVMNKDDPDWWQGEINGVTGLFPSNYVKM [E17F], the abundance fitness is -0.11 ± 0.04. The value for VCQVIAMYDYAANNEDQLSFSKGQLINVMNKDDPDWWQGEINGVTGLFPSNYVKM [E17Q] was -0.042 ± 0.043. On to VCQVIAMYDYAANNEDCLSFSKGQLINVMNKDDPDWWQGEINGVTGLFPSNYVKM [E17C], for which the abundance fitness was -0.105 ± 0.042. Under VCQVIAMYDYAANNEDMLSFSKGQLINVMNKDDPDWWQGEINGVTGLFPSNYVKM [E17M] stands -0.037 ± 0.044; under VCQVIAMYDYAANNEDALSFSKGQLINVMNKDDPDWWQGEINGVTGLFPSNYVKM [E17A], -0.174 ± 0.04. Under VCQVIAMYDYAANNEDILSFSKGQLINVMNKDDPDWWQGEINGVTGLFPSNYVKM [E17I] stands -0.215 ± 0.072; under VCQVIAMYDYAANNEDYLSFSKGQLINVMNKDDPDWWQGEINGVTGLFPSNYVKM [E17Y], 0.064 ± 0.048; under VCQVIAMYDYAANNEDKLSFSKGQLINVMNKDDPDWWQGEINGVTGLFPSNYVKM [E17K], -0.089 ± 0.042. The value for VCQVIAMYDYAANNEDWLSFSKGQLINVMNKDDPDWWQGEINGVTGLFPSNYVKM [E17W] was -0.322 ± 0.054; that for VCQVIAMYDYAANNEDHLSFSKGQLINVMNKDDPDWWQGEINGVTGLFPSNYVKM [E17H] was 0.048 ± 0.062; that for VCQVIAMYDYAANNEDVLSFSKGQLINVMNKDDPDWWQGEINGVTGLFPSNYVKM [E17V] was -0.145 ± 0.04. In the case of VCQVIAMYDYAANNEDDLSFSKGQLINVMNKDDPDWWQGEINGVTGLFPSNYVKM [E17D], the abundance fitness was -0.16 ± 0.043. The value for VCQVIAMYDYAANNEDNLSFSKGQLINVMNKDDPDWWQGEINGVTGLFPSNYVKM [E17N] was -0.271 ± 0.097. VCQVIAMYDYAANNEDGLSFSKGQLINVMNKDDPDWWQGEINGVTGLFPSNYVKM [E17G]: the abundance fitness was -0.039 ± 0.041. Under VCQVIAMYDYAANNEDRLSFSKGQLINVMNKDDPDWWQGEINGVTGLFPSNYVKM [E17R] stands -0.016 ± 0.03; under VCQVIAMYDYAANNEDPLSFSKGQLINVMNKDDPDWWQGEINGVTGLFPSNYVKM [E17P], -0.756 ± 0.12.

The values above are taken from the Human Domainome abundance scans (Beltran et al. 2025).
